The record followed here is publication PMC4342030 (Molecular Biology of the Cell, 2015).

The target in assay [1] is T1, purified APPL2 after cleavage of GST (mouse, UniProt Q8K3G9 1-662).
T1 sequence (looked up): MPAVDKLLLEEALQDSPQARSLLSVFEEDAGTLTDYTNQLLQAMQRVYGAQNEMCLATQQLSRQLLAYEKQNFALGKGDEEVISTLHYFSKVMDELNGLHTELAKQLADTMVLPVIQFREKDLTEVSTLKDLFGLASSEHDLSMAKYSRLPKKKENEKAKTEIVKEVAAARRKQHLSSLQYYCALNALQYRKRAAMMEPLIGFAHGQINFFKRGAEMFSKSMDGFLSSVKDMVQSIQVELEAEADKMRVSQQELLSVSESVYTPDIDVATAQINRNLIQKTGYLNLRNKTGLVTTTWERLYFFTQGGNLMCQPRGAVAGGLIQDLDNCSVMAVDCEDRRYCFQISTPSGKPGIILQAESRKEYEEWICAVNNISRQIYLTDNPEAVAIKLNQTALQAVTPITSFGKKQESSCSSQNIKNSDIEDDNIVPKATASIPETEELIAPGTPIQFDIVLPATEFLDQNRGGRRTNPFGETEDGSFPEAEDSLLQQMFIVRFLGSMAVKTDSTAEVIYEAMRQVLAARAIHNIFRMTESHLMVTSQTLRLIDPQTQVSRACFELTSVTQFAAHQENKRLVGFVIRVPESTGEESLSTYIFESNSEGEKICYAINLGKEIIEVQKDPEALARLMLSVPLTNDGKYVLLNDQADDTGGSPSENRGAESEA
Briefly: pull-down.

Another assay has as its target T2, GFP-Rab31 (mouse, UniProt Q921E2 1-195).
T2 sequence (looked up): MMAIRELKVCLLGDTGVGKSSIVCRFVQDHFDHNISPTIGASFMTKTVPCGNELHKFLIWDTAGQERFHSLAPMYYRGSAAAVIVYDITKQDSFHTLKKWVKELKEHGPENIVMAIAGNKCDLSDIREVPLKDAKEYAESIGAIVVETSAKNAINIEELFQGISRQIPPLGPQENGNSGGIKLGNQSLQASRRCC
Briefly: co-IP.

B1: GST-Rab31 (natural protein, mouse, UniProt Q921E2 1-195, looked up)
chain: MMAIRELKVCLLGDTGVGKSSIVCRFVQDHFDHNISPTIGASFMTKTVPCGNELHKFLIWDTAGQERFHSLAPMYYRGSAAAVIVYDITKQDSFHTLKKWVKELKEHGPENIVMAIAGNKCDLSDIREVPLKDAKEYAESIGAIVVETSAKNAINIEELFQGISRQIPPLGPQENGNSGGIKLGNQSLQASRRCC
On to B1, for which the binding result in assay [1] is “binds”.

B2: APPL2 (adaptor protein, phosphotyrosine interaction, PH domain, and leucine zipper–containing 2) (natural protein, mouse (endogenous in RAW 264.7), UniProt Q8K3G9 1-662, looked up)
chain: MPAVDKLLLEEALQDSPQARSLLSVFEEDAGTLTDYTNQLLQAMQRVYGAQNEMCLATQQLSRQLLAYEKQNFALGKGDEEVISTLHYFSKVMDELNGLHTELAKQLADTMVLPVIQFREKDLTEVSTLKDLFGLASSEHDLSMAKYSRLPKKKENEKAKTEIVKEVAAARRKQHLSSLQYYCALNALQYRKRAAMMEPLIGFAHGQINFFKRGAEMFSKSMDGFLSSVKDMVQSIQVELEAEADKMRVSQQELLSVSESVYTPDIDVATAQINRNLIQKTGYLNLRNKTGLVTTTWERLYFFTQGGNLMCQPRGAVAGGLIQDLDNCSVMAVDCEDRRYCFQISTPSGKPGIILQAESRKEYEEWICAVNNISRQIYLTDNPEAVAIKLNQTALQAVTPITSFGKKQESSCSSQNIKNSDIEDDNIVPKATASIPETEELIAPGTPIQFDIVLPATEFLDQNRGGRRTNPFGETEDGSFPEAEDSLLQQMFIVRFLGSMAVKTDSTAEVIYEAMRQVLAARAIHNIFRMTESHLMVTSQTLRLIDPQTQVSRACFELTSVTQFAAHQENKRLVGFVIRVPESTGEESLSTYIFESNSEGEKICYAINLGKEIIEVQKDPEALARLMLSVPLTNDGKYVLLNDQADDTGGSPSENRGAESEA
In the case of B2, the “fold preference over GFP-Rab5a” value in the assay with GFP-Rab31 is 3 fold.
